Sequences and labels used below:
B1: F22158109 (h5A1-BI-009 Fc) (Fc fusion)
chain: EVQLLESGGGLVQPGGSLRLSCAASGYTNRIKCMGWFRQAPGKEREEVASISTGTGNSYYADSVKGRFTISQDKSKNTLYLQMNSLKAEDTAVYYCAADVRPDGRTCHYNKRGQGTLVTVSS
notes: VHH-Fc format; not shown: Fc of the VHH-Fc format
B2: F22158105 (h5A1-BI-005 Fc) (Fc fusion)
chain: B1 chain with I31L, S58T, R105F
notes: as for B1
B3: F221581010 (h5A1-BI-010 Fc) (Fc fusion)
chain: B1 chain with I31L, S58T
notes: VHH-Fc format; also called F22158110; not shown: Fc of the VHH-Fc format
B4: F22158106 (h5A1-BI-006 Fc) (Fc fusion)
chain: B1 chain with S58T, K111S
notes: as for B1
B5: F221581018 (h5A1-BI-018 Fc) (Fc fusion)
chain: B1 chain with I31L, S58A, D103H, K111S
notes: VHH-Fc format; also called F22158118; not shown: Fc of the VHH-Fc format
B6: F22158103 (h5A1-BI-003 Fc) (Fc fusion)
chain: B1 chain with I31L, S58A, R105T
notes: as for B1
B7: F221581019 (h5A1-BI-019 Fc) (Fc fusion)
chain: B1 chain with S58A, D103H, K111S
notes: VHH-Fc format; also called F22158119; not shown: Fc of the VHH-Fc format
B8: F22158104 (h5A1-BI-004 Fc) (Fc fusion)
chain: B1 chain with S58A, R105T
notes: as for B1
B9: F221581014 (h5A1-BI-014 Fc) (Fc fusion)
chain: B1 chain with S58T, D103F, K111S
notes: VHH-Fc format; also called F22158114; not shown: Fc of the VHH-Fc format
B10: F22158108 (h5A1-BI-008 Fc) (Fc fusion)
chain: B1 chain with S58A, K111S
notes: as for B1
B11: F221581016 (h5A1-BI-016 Fc) (Fc fusion)
chain: B1 chain with I31L, S58A, D103H, R105T, K111S
notes: VHH-Fc format; also called F22158116; not shown: Fc of the VHH-Fc format
B12: F22158107 (h5A1-BI-007 Fc) (Fc fusion)
chain: B1 chain with I31L, S58A, K111S
notes: as for B1
B13: F221581020 (h5A1-BI-020 Fc) (Fc fusion)
chain: B1 chain with I31L, S58A, D103H, R105T
notes: VHH-Fc format; also called F22158120; not shown: Fc of the VHH-Fc format
B14: F22158101 (h5A1-BI-001 Fc) (Fc fusion)
chain: B1 chain with S58T, R105F, K111S
notes: as for B1
B15: F221581011 (h5A1-BI-011 Fc) (Fc fusion)
chain: B1 chain with S58T, D103F, R105T, K111S
notes: VHH-Fc format; also called F22158111; not shown: Fc of the VHH-Fc format
B16: F221581012 (h5A1-BI-012 Fc) (Fc fusion)
chain: B1 chain with I31L, S58T, D103F, K111S
notes: VHH-Fc format; also called F22158112; not shown: Fc of the VHH-Fc format
B17: F221581021 (h5A1-BI-021 Fc) (Fc fusion)
chain: B1 chain with S58A, D103H, R105T
notes: VHH-Fc format; also called F22158121; not shown: Fc of the VHH-Fc format
B18: F221581017 (h5A1-BI-017 Fc) (Fc fusion)
chain: B1 chain with S58A, D103H, R105T, K111S
notes: VHH-Fc format; also called F22158117; not shown: Fc of the VHH-Fc format
B19: F22158102 (h5A1-BI-002 Fc) (Fc fusion)
chain: B1 chain with S58T, R105T
notes: as for B1
B20: F221581013 (h5A1-BI-013 Fc) (Fc fusion)
chain: B1 chain with I31L, S58T, D103F, R105T
notes: VHH-Fc format; also called F22158113; not shown: Fc of the VHH-Fc format
B21: F221581015 (h5A1-BI-015 Fc) (Fc fusion)
chain: B1 chain with S58T, D103F, R105T
notes: VHH-Fc format; also called F22158115; not shown: Fc of the VHH-Fc format
B22: FUSE-589 (h2A11-HK5 Fc) (Fc fusion)
chain: EVQLLESGGGLVQPGGSLRLSCAASGSTYSANCMGWFRQAPGKERELASMSIRSGRTYYADSVKGRFTISQDGSKNTLYLQMNSLKAEDTAVYYCAAAYGGSRCVYNYRGQGTLVTVSS
notes: as for B1
B23: FUSE-594 (h5A1-FA9-HK6_Fc) (Fc fusion)
chain: EVQLLESGGGLVPRGGSLRLSCTASGYTNRLKCMGWFRQAPGKEREEIASISTGTGNTYYADSVKGRFTISQDKSRNTLYLQMNSLKAEDTAVYYCAADVRPRGTTCHYNSRGQGTQVTVSS
notes: as for B1
B24: FUSE-590 (h5A1-FA9-HK2_Fc) (Fc fusion)
chain: B23 chain with P13Q, A61S, Q72R, N84K, K87R
notes: as for B1
B25: FUSE-595 (h5A1-FA9-HK7_Fc) (Fc fusion)
chain: B23 chain with P13Q, S50T, Q72R, N84K, R103K
notes: as for B1
B26: FUSE-596 (h5A1-FA9-HK8 Fc) (Fc fusion)
chain: B23 chain with A61S, Q72R, Q82K, M83L, N84K, K87R, R103D
notes: as for B1
B27: FUSE-591 (h5A1-FA9-HK3_Fc) (Fc fusion)
chain: B23 chain with T23A, S50T, R103K, S111K
notes: as for B1
B28: FUSE-593 (h5A1-FA9-HK5_Fc) (Fc fusion)
chain: B23 chain with P13Q, T23A, A61S, Q72R, M83L, R103K
notes: as for B1
B29: FUSE-592 (h5A1-FA9-HK4_Fc) (Fc fusion)
chain: B23 chain with T23A, I48V, M83L, K87R
notes: as for B1
B30: FUSE-560 (h2A11-HK2 Fc) (Fc fusion)
chain: B22 chain with Q71R, G73S
notes: as for B1
B31: FUSE-562 (h2A11-HK4 Fc) (Fc fusion)
chain: B22 chain with A60S, Q71R
notes: as for B1
B32: FUSE-561 (h2A11-HK3 Fc) (Fc fusion)
chain: B22 chain with Q71R, G73S, K86R
notes: as for B1
B33: BI-HU9-HK-1 h5A1 Fc (Fc fusion)
chain: B1 chain with I31L, S58T, R105T, K111S
notes: as for B1
B34: BI-HU9-VH9-1 h5A1 Fc (Fc fusion)
chain: B23 chain with S50T, N84K, S85T, K87R, R103D, R112W
notes: as for B1
B35: BI-HU9-VHH31 h5A1 Fc (Fc fusion)
chain: EVQLVESGGGLVQPGGSLRLSCAASGFTVRLKCMGWFRQAPGKGLEEVATISTGTGNTYYADSVKGRFTISRDNSKNTLYLQMNSLRAEDTAVYYCAADVRPDGTTCHYNSWGQGTTVTVSS
notes: as for B1
B36: BI-HU9-VH9 h5A1 Fc (Fc fusion)
chain: B23 chain with S50T, Q72R, K74N, N84K, S85T, K87R, R103D, R112W
notes: VHH-Fc format; same VHH as FUSE-497; not shown: Fc of the VHH-Fc format

Positions count from the first letter of the chain named.

For the first test, the target named is T1, human ROR1 (Receptor Tyrosine Kinase-Like Orphan Receptor 1) on the cell surface (human, UniProt Q01973 30-937).
T1 construct: whole, on cells; engineered into B16-F10 (high density) and LS174T (low density) cells; also called B16-F10-ROR1-H; LS174T-ROR1-L
T1 sequence (Q01973 30-937): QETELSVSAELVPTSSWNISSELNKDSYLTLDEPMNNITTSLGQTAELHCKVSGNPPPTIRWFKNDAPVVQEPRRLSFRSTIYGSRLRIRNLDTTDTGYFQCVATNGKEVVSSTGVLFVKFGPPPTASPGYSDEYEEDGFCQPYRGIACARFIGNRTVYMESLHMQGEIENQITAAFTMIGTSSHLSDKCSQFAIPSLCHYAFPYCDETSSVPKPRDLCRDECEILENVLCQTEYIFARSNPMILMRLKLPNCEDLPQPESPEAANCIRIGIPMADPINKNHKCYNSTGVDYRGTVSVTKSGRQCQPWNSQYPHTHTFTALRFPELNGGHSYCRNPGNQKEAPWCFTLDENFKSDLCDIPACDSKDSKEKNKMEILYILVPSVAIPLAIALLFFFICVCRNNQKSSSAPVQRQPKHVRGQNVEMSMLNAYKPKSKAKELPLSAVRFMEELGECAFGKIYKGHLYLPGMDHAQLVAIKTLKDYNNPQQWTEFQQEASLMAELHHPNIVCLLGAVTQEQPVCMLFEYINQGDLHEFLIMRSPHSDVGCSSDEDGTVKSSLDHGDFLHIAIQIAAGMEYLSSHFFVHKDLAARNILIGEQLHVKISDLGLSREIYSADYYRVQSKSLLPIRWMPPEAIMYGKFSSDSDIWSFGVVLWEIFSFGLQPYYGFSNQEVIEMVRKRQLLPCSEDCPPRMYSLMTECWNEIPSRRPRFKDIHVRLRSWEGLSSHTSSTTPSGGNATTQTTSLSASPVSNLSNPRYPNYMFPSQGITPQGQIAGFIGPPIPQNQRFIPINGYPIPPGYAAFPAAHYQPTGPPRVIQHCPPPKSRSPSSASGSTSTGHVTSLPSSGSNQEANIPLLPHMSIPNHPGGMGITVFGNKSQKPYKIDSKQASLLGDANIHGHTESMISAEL
The experiment in a line: flow cytometry, LS174T cells expressing human ROR1 (low density). The protocol: (§1) As shown in the tables below, mouse B16-F10 melanoma (Tables 9A-9F) or LS174T human colorectal adenocarcinoma (Tables 9G-9H) cells genetically engineered to express human ROR1 at high and low densities, respectively, were stained for flow cytometric analysis with 100 nM of humanized variants of the ROR1 specific VHHs, 5A1 or 2A11 in either a VHH-Fc format or the Ac13 format shown in FIG. 1. Cells were analyzed on a flow cytometer after the primary test article was fluorescently tagged with a goat anti human IgG-Fc specific PE secondary antibody. The positive control used was PE conjugated anti-human ROR1 clone 2A2. Negative controls included a PE labeled mouse IgG Ab, the secondary antibody only, the combination of a Hen Egg Lysozyme (HEL) specific antibody plus goat anti human IgG-Fc specific PE and Fluorescence Minus One (FMO). Other controls included the non-humanized version of 5A1-Fc (FUSE179), 2A11-Fc (FUSE112) and 5A1-Ac13 (FUSE488). Humanized variants were generated using computational design (FUSE489, FUSE497-498, FUSE563, FUSE569-570, and BI-HU9-VHH11-33), a yeast display library in which mutations were inserted into the Vernier zone residues of human framework indicated in GenBank accession number M99660 (FUSE524-525, FUSE589, FUSE597-598, FUSE537, FUSE661-662, BI-HU9-HK and BI-HU9-HK-1), and a second yeast display library in which mutations were inserted into the Vernier zone residues of human framework indicated in GenBank accession number AWH66715 and amino acid position 103 within CDR3 (FUSE559, FUSE590-596, BI-HU9-VH9-1, FUSE654-655 and FUSE661-662. Affinity matured variants of FUSE559 were also generated using computational design (F22158101-21; Table 9H).
Consider B1, for which the MFI turned out to be 35000.
As for B2, the MFI is 22300.
Consider B3, for which the MFI was determined as 18700.
With B4, the MFI turned out to be 17400.
Still for that read-out and setting: in the case of B5 it was 17500.
Still for that read-out and setting: in the case of B6 it was 15800.
On to B7, for which the MFI amounted to 33800.
For B8, the MFI was 28900.
B9: the MFI stood at 28700.
Take B10: the MFI came out at 25100.
Still for that read-out and setting: in the case of B11 it was 15000; in that of B12, 11500; in that of B13, 26500.
Take B14: the MFI amounted to 19700.
On the same count and under the same terms, in the case of B15 it was 19400; in that of B16, 14200; in that of B17, 35800.
For B18, the MFI turned out to be 28600.
On the same count and under the same terms, with B19 the figure was 20500.
B20: the MFI is 23800.
On the same count and under the same terms, in the case of B21 it was 29300.

The target of a further test is T1, human ROR1 (Receptor Tyrosine …). The experiment in a line: flow cytometry, B16-F10 cells expressing human ROR1 (high density). The protocol:
as §1
With B22, the MFI turned out to be 6950.
Consider B23, for which the MFI came out at 7910.
Turning to B24, the MFI worked out at 7330.
On to B25, for which the MFI stood at 7180.
Still for that read-out and setting: in the case of B26 it was 6260; in that of B27, 7770.
As for B28, the MFI came to 7520.
Same read-out and setting: with B29 the figure was 7540.

Another test shares this target. The description is as above. The source holds these as a separate data set. How it is done:
as §1
Turning to B30, the MFI stood at 159000.
Regarding B31, the MFI stood at 155000.
Same read-out and setting: with B32 the figure was 157000.
For B33, the MFI stood at 136000.
In the case of B34, the MFI is 16600.
Turning to B35, the MFI turned out to be 17900.
On the same count and under the same terms, with B36 the figure was 14400.

Values taken from patent US20250313627A1 (FUSE BIOTHERAPEUTICS, published 2025).
